# Reference: US9549967B2, “Regulation of sodium channels by PLUNC proteins” (The University of North Carolina at Chapel Hill, priority 2009, dated 2017)
# T1: αENaC (Rattus norvegicus, UniProt P37089)
# T1 construct: expressed in transfected cells; host or cells: Xenopus oocytes
# T1 sequence (P37089 1-698): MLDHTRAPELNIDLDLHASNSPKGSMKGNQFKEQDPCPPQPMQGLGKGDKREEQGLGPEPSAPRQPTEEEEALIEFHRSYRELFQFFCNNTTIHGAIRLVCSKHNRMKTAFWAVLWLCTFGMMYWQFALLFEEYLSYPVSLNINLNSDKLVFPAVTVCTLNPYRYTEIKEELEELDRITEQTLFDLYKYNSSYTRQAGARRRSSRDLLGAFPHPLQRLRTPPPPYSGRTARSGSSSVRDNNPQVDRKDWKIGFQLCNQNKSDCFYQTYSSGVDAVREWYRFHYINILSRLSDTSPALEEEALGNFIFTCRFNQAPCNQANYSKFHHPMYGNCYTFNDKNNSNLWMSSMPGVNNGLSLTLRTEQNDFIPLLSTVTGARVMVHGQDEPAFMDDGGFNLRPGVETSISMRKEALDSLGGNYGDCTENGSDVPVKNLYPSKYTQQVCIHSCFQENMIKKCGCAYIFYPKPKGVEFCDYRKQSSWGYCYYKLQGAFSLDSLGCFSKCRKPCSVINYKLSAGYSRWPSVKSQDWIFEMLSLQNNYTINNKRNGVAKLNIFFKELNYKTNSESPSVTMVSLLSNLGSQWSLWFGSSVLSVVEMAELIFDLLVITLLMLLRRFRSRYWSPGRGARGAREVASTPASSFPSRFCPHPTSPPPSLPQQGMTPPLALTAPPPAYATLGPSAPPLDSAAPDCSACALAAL
# T1 sequence (P37090 1-638 partner): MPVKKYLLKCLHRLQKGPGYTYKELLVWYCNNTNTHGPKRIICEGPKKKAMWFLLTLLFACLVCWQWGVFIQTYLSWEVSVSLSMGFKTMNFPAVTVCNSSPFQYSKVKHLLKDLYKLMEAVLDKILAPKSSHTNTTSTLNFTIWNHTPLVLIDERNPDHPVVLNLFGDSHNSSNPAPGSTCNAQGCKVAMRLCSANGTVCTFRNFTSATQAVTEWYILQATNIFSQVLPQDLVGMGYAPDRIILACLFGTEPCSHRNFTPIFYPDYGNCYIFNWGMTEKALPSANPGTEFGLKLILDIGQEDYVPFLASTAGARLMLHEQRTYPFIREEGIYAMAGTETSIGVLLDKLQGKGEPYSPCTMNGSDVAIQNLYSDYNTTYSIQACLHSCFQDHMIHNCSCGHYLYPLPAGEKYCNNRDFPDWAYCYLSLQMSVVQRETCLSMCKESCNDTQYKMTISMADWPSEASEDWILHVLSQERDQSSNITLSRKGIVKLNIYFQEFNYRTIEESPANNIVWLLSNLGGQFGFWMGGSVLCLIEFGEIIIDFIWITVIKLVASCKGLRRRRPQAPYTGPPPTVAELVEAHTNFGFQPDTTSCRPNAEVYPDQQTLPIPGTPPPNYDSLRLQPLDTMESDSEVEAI
# T1 sequence (P37091 1-650 partner): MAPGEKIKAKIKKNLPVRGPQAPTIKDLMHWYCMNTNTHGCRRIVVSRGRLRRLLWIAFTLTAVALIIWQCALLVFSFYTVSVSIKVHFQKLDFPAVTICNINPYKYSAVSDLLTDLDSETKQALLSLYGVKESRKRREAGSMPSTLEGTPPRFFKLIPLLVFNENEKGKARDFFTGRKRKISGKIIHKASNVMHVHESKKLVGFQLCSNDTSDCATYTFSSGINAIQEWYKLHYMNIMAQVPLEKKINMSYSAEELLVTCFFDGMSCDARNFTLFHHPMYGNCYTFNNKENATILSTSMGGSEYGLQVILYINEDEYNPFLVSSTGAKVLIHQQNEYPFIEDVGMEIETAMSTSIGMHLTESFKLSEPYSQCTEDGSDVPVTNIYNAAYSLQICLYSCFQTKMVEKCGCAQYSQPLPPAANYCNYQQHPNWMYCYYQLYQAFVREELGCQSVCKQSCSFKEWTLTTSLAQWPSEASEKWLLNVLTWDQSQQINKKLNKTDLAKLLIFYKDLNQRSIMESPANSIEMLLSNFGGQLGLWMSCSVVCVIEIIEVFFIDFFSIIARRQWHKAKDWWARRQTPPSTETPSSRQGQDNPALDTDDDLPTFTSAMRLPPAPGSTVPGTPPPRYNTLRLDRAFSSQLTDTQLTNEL
# B1: SPLUNC1: human SPLUNC1, 256 amino acid secreted PLUNC protein (SEQ ID NO:1); rSPLUNC1 = V5/6His-tagged protein purified from HEK293 media (protein, listed as Homo sapiens)
# chain: MFQTGGLIVFYGLLAQTMAQFGGLPVPLDQTLPLNVNPALPLSPTGLAGSLTNALSNGLLSGGLLGILENLPLLDILKPGGGTSGGLLGGLLGKVTSVIPGLNNIIDIKVTDPQLLELGLVQSPDGHRLYVTIPLGIKLQVNTPLVGASLLRLAVKLDITAEILAVRDKQERIHLVLGDCTHSPGSLQISLLDGLGPLPIQGLLDSLTGILNKVLPELVQGNVCPLVNEVLRGLDITLVHDIVNMLIHGLQFVIKV
# modifications: V5/6His tag
# notes: rSPLUNC1 = V5/6His-tagged protein purified from HEK293 media
# Assays:
# αENaC = biological target: T1, αENaC; experiment: Surface biotinylation of αENaC in Xenopus oocytes; type: cell-based; details: coexpression with SPLUNC1 in oocytes
# Method: The effect of SPLUNC1 on the number of ENaC channels in the plasma membrane was tested by expressing SPLUNC1 and αENaC in Xenopus oocytes. After surface biotinylation of αENaC, total lysate was prepared and lysate from 3-4 eggs was separated on a 10% gel.
# trypsin = experiment: Cell-free fluorogenic assay of BGAR-MCA cleavage by trypsin; type: biochemical; details: 50 ng/ml rSPLUNC1; 1.0 or 0.3 U/ml trypsin
# Method: For cell-free assays, reactions were carried out in 50 μl Ringer in a 96 well plate format with 100 μM BGAR-MCA. To measure endogenous protease activity in human bronchial epithelial cultures, 30 μl Ringer with 100 μM BGAR-MCA were placed directly onto the mucosal surfaces of human bronchial epithelial cultures grown on 12 mm T-clear inserts and the cultures were assayed in 12 well plates.
# CFTR = biological target: T2, CFTR (Homo sapiens, UniProt P13569); experiment: CFTR activity in Xenopus oocytes co-expressing CFTR and β2 adrenergic receptor; type: cell-based; details: after 10 μM isoproterenol
# T2 construct: expressed in transfected cells; host or cells: Xenopus laevis oocytes
# Method: Oocyte studies. Xenopus laevis oocytes were harvested and injected as described (Donaldson, et al., J. Biol. Chem. 277:8338 (2002)). Defolliculated healthy stage V-VI oocytes were injected with 0.3 ng of cRNA of each ENaC subunit. Injected oocytes were kept in modified Barth's saline (in mM: 88 NaCl, 1 KCl, 2.4 NaHCO3, 0.3 Ca(NO3)2, 0.41 CaCl2, 0.82 MgSO4, and 15 HEPES, adjusted to pH 7.35 with Tris). Oocytes were studied 24 hr after injection using the two electrode voltage clamp technique as previously described (Donaldson, et al., J. Biol. Chem. 277:8338 (2002)). Oocytes were clamped at a holding potential of […]. The change in amiloride-sensitive whole cell current as an indicator of ENaC activity was determined by subtracting the corresponding current value measured in the presence of 10 μM amiloride from that measured before the application of amiloride.
# In both cases, we co-expressed CFTR with the β2 adrenergic receptor (β2AR) which can be stimulated with isoproterenol to raise cAMP and stimulate CFTR (Uezono et al., Receptors Channels 1:233 (1993)).
# T2 sequence (P13569 whole entry, species assumed): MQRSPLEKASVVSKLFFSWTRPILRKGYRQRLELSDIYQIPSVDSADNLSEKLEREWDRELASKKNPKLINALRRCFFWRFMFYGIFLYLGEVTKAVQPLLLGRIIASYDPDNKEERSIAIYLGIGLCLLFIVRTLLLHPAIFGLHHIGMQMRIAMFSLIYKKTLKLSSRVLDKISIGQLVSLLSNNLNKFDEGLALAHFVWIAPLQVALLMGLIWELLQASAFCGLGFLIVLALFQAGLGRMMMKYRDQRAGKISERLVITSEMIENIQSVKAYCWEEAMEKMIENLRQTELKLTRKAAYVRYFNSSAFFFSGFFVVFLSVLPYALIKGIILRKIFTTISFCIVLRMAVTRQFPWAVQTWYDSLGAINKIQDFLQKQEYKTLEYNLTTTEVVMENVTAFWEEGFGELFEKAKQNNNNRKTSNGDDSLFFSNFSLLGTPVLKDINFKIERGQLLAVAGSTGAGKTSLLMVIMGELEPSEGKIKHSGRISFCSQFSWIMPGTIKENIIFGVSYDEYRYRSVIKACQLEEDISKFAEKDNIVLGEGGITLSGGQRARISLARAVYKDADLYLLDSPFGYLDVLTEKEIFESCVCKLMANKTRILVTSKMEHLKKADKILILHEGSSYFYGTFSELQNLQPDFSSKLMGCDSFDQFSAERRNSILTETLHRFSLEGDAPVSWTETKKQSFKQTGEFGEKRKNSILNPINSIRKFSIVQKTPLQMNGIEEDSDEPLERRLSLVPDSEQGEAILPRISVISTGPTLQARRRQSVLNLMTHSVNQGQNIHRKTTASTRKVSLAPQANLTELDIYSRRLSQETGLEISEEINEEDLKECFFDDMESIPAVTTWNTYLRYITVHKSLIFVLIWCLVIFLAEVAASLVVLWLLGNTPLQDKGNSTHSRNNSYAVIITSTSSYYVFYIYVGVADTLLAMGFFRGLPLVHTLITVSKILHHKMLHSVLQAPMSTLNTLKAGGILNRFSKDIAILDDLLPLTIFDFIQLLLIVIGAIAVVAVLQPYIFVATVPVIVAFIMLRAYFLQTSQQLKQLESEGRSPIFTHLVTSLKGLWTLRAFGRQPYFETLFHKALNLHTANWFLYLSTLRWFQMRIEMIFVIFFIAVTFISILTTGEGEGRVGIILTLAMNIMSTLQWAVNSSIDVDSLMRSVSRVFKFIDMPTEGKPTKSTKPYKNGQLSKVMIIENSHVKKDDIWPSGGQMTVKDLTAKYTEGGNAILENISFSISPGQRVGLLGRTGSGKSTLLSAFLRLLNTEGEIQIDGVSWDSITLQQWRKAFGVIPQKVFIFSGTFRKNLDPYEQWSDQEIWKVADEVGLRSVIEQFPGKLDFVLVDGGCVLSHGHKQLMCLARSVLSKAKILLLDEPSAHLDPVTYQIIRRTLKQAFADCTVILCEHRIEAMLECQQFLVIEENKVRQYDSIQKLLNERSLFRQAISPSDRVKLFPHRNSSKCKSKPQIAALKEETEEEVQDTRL
molecule,measurement,setting,value
B1,plasma membrane ENaC (surface biotinylation),αENaC,decreased
same,effect on the ability of trypsin to cleave fluorogenic substrate BGAR-MCA,trypsin,~10%
same,effect on CFTR activity,CFTR; 5 ng/ml rSPLUNC1 exposure,no inhibitory effect
same,effect on CFTR activity,CFTR; injection of SPLUNC1 cRNA,no inhibitory effect
